These are literature values, as cited in publication PMC3772054.

Data set [1] concerns the target IL-2Rα (Homo sapiens) (UniProt P01589).
The target in data set [2] is IL-15Rα (Homo sapiens) (UniProt Q13261).
UniProt Q13261, sequence (Q13261 31-205): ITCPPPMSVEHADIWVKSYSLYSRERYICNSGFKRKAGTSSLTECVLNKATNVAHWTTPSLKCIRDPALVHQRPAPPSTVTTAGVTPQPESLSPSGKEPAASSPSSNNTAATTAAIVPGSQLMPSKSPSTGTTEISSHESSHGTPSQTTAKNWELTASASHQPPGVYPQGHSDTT

UniProt P01589, sequence (P01589 22-240): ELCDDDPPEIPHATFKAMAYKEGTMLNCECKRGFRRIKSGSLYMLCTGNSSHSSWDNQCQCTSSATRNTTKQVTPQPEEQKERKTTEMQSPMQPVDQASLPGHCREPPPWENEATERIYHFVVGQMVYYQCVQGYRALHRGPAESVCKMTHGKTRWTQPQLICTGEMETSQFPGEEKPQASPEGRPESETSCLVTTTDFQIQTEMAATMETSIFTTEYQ

By Kd is commonly meant the constant that tells how readily two partners part at equilibrium. Consider IL-2 (from UniProt P60568), for which the Kd in data set [1] is 4.8 nM. Regarding IL-15 (from UniProt P40933), in data set [2], the Kd was 0.038 nM.
